Experimental data taken from patent publication US20180036395A1, “DOSAGE AND ADMINISTRATION OF MONOSPECIFIC AND BISPECIFIC ANTI-IGR-1R AND ANTI-ERBB3 ANTIBODIES” (Merrimack Pharmaceuticals, Inc., priority 2012, published 2018).

Tested on: BxPC-3 cells
Experiment: In vitro signaling ELISA, KRAS wild-type cells
Type: cell-based, human
Settings: combination 500 nM P4-G1-M1.3 + 250 nM GSK1120212, 24 hours, 10% serum, FIG. 3
Experimental: Cells were treated with 500 nM P4-G1-M1.3, 250 nM GSK1120212 or the combination for 24 hours in 10% serum and ELISA assays were performed. The data was normalized to 10% serum without treatment.
The preclinical models to support this example are performed using BxPC-3 (KRAS wild-type) and KP4 (KRAS mutant) cell lines.

B1: P4-G1-M1.3: anti-IGF-1R+anti-ErbB3 polyvalent bispecific antibody, IgG1-(scFv)2 (SEQ ID NO:148 and SEQ ID NO:149) (protein)
chain 1: EVQLLQSGGGLVQPGGSLRLSCAASGFLFSSYPMHWVRQAPGKGLEWVGSISPSGGATPYADSVKGRFTISRDNSKNTLYLQMNSLRPEDTAVYYCAKDFYNILTGNAFDKWGQGTSVTVSSASTGGGGSGGGGSGGGGSGGGGSDIQLTQSPSSLSASLGDRVTITCRASQGISSYLAWYQQKPGKAPKLLIYAGSTPQSGVPSRFSGSGSGTEFTLTISSLQPEDSGTYYCQQYWTWPLTFGGGTKVEIKRT
chain 2: EVQLVESGGGLVQPGRSLRLSCAASGFTFDDYAMHWVRQAPGKGLEWVSGISWNSGSTGYADSVKGRFTISRDNAKNSLYLQMNSLRAEDTALYYCARDLGYNQWLEGFDYWGQGTLVTVSSASTGGGGSGGGGSGGGGSGGGGSSSELTQDPAVSVALGQTVRITCQGDSLRSYYASWYQQKPGQAPVLVIYGKNNRPSGIPDRFSGSSSGNTASLTITGAQAEDEADYYCMSRDHPGNQWVFGGGTKVTVLG
modifications: Synthetic polypeptide:Anti-IGF-1R scFvs M76; Synthetic polypeptide:Anti-ErbB3 scFvs P6L
signaling (pAkt Ser473, pERK): inhibition of signaling
